B1: GST‐BmVreteno‐L (natural protein, Bombyx mori)
chain: MSNHSRPQRRREWDPMRDDFNEHTYDVQYADDNAGEQVQLDHTKLYIINIPRGLSEDGIRAAFSKHGKVLSARLSKNPNKRFAIVQFETASEAKLAMMKMNGSEPLNLKISIAHKTIRKTQHDNKDRNYSTSRNGHCSRDEASSISSKGWNMRNLDDVMNNDEIDEIDDMIHEDHDDNLDLELDMLTLKQLKIKEEQLMCKRRLLLRHAEKRQVAPHSSAGRSVLPDGRIVVRNNANETDSAEVEPSFAGAGSESLKTPGLERNASRQCVKCGAPADWYCSRCAITPYCSQTCQTRDWTERHKSVCHYLAPLKTAGGFEAEATSSKSVSNSTPMRSSHSPPTKQQRGEADETDNKAKNIQEPRQNYHRPSNSGPNKNIPGKNQDPRRPATSREAIEEETEERGARNPKPAEATKDKHHPMNPVTFQRRQLKSNPVVDAQPAPREQQQPAATRAPEASPTEQRESTRRTLVPDRCLIDSLSEGDVVLVSVELKASECCTKQGGYVCLSMHEKYESDYQKLCEDYVLDCEADSDEYKIITGDTFSYLSPEDGGWYRARALNTTMAALLDGSKVVYLRMNDKVKKLPAKYSGIPEFCCVLNADVEVGLNLKCSLLSKTPNGFKVTLENVETEANVGEGEITRWIPEVDYPPPVKNVPVQRSVEIPEVPRPEIKNKSRVILVDATDVQRVFVRPADTRSQKAFDNILQDVLLYGTTAEPLKEPPSKGQTVVSKYTDNLHYRALCKRTSVNKNKYLLEYIEYGNIEITQLNRLYPCPEHLSVTSLASLTSHVQLDTTVGELTPRALEYIETIKEEEMILTLSSGGDTAQSGAALVNLTLVKNNDNVNKRIEELCTPEWKKLELKGVDVIETERLMYGTALDYIELPAAPFDLQVLDEVGLDSGNISGCPTNSDYVRYVMTKLPARMREYCESEFGRQPYLPAAEELCIAQLPPSSEWHRAVVLEQILGPGGGTARVLFVDHGNVAEVPVSSLRKMLAEFVTDLPAVACQIVIEDFPKQATAEMLAKARRFMSGPDKARAAQLPVRGCDKQDVGIYAIRVPELLEAMTE
notes: BmVreteno Long isoform, Bombyx mori; pGEX-6p vector, 3C site between GST and BmVreteno; the purified protein was associated with nucleic acids; also called GST‐3C‐BmVreteno; full‐length BmVreteno‐L; source: E. coli BL21 DE3 codon+, purified (GSTrap, gel filtration); not shown: GST, N-terminal, kept

What was measured:
GST‐BmVreteno‐L = target: B1; experiment: pull-down; GSH pull-down: 5 μM GST-BmVreteno (or fragment, variant) on Glutathione Sepharose 4B with 10 μM His-BmGtsf1L, 2 h 4°C, PBS with 0.1% Triton-X100; SDS-PAGE, Coomassie (Fig 5G also anti-His Western blot); conditions: both partners purified
[1] = target: the molecule itself; experiment: SEC; gel filtration of purified GST-BmVreteno-L and -S (Superdex 75 and 200 16/60 pg, 25 mM Na-Hepes, 300 mM NaCl, 10% glycerol, pH 7.4); protein associated with nucleic acids

Binder | binding result (GST‐BmVreteno‐L) | binding result [1]
His‐BmGtsf1L (natural protein, Bombyx mori, BmGtsf1L, Bombyx mori; pET28a, thrombin site after the His6 tag; also called His6‐thrombin‐BmGtsf1L; recombinant BmGtsf1L; source: E. coli BL21 DE3 codon+, purified (HisTrap, gel filtration); not shown: His6, N-terminal, kept) MDDPFVSCPYNPIHRVPRSRLQRHIVKCEWINPTMIACPYNATHRYTQEDMKFHVLNCPSKTSIFPIEKPPKTVASITTPKIILQKEYLPETDPNHEIWDD | binds | 
B1 |  | binds

From PMC10711660, “An extended Tudor domain within Vreteno interconnects Gtsf1L and Ago3 for piRNA biogenesis in Bombyx mori” (The EMBO Journal, 2023)
